Data as given in paper PMC6325061.

Molecular target: phytochrome B (PhyB), amino acids 1-651, biotinylated (Arabidopsis thaliana) (UniProt P14713)
Chain of UniProt P14713 (P14713 1-651): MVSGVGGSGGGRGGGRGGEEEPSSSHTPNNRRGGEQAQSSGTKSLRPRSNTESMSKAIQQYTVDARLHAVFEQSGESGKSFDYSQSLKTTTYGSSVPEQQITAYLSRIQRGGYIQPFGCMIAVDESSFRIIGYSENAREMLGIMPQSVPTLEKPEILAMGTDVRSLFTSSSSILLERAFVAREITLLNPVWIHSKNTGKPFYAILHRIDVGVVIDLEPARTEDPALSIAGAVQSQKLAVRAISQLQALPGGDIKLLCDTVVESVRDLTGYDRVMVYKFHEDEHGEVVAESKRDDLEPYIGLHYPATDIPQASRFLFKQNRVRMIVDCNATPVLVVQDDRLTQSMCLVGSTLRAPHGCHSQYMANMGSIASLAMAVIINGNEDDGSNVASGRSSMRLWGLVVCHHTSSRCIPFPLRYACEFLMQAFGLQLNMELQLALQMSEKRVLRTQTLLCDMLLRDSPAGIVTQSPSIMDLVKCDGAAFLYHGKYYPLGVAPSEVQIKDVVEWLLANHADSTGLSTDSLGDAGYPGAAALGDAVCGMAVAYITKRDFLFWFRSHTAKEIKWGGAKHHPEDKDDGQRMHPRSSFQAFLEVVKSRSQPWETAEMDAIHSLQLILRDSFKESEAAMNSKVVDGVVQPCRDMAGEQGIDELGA

Substance: OptoIntegrin: human integrin αVβ3 with PIF^S inserted between Met180 and Lys181 of the β subunit (construct pJB005) (from UniProt Q8L5W7 1-100; P06756 31-1048) (receptor)
- cells with paxillin clustering at the cellular periphery, HeLa stably expressing OptoIntegrin on PhyB (1–651)-coated glass, constant 660 nm light: 80 % of cells
- cells with paxillin clustering at the cellular periphery, HeLa stably expressing OptoIntegrin on PhyB (1–651)-coated glass, treated with far-red (740 nm) light: 20 % of cells
- cells with paxillin clusters at the edges, HEK-293T stably expressing OptoIntegrin on PhyB (1–651)-coated glass, constant 660 nm light: 55 % of cells
- cells with paxillin clusters, HEK-293T stably expressing OptoIntegrin on PhyB (1–651)-coated glass, 1.5 h 660 nm then switched to 740 nm for 0.5 h: 40 % of cells
